From patent US12012446B2, “Epstein-Barr virus antibodies and uses thereof” (priority 2017, dated 2024)

Columns and labels:
EBV [1] = conditions: SCID mice with PBMC from EBV-naïve donors; cited from earlier work
EBV [2] = conditions: small phase 1 clinical trial; cited from earlier work
[3] = target: T1, EBV gp350 20-mer linear peptides (gp350 regions) (Epstein-Barr virus, UniProt P03200); assay type: binding
T1 construct: purchased GenicBio; host or cells: chemical solid-phase synthesis
Experimental: Forty-five sequential 20-mer linear peptides, covering the whole sequence of gp350 (GenBank: NC_007605.1), with an exception of aa 862-881, were synthesized using a solid phase method and cleaved using a low-high hydrogen fluoride method by the GenicBio, as previously described (58).
The binding of anti-gp350 mAbs to 45 synthesized 20-mer sequential peptides covering the total length of gp350 was analyzed using indirect ELISA as described (58). Briefly, immunoplates were coated with 50 μl of 10 μg/ml EBV gp350 peptides (forty-five 20-mers) diluted in PBS and incubated overnight at 4° C.; 0.5 μg/ml recombinant EBV gp350 ectodomain protein was used as a positive control. After washing three times with washing buffer (PBS containing 0.05% (v/v) Tween 20), plates were blocked with 100 μl washing buffer containing 3% BSA (blocking buffer), incubated for 1 hour at room temperature, and washed as above. Ten μg/ml purified mAbs were added to each well in triplicate and incubated for 2 hours at room temperature. […] The plates were washed as described above, followed by incubation with goat anti-mouse IgG or goat anti-human IgG HRP-conjugated secondary antibody (1:2,000 diluted in PBS) at room temperature for 1 hour. The plates were washed again and the chromogenic substrate ABTS was added. The reaction was stopped using ABTS peroxidase stop solution. The absorbance was read at an optical density of 405 nm using an ELISA plate reader.
The peptide library, consisting of 20-mer peptides, covered the entire gp350 protein, with the exception of AA 862-881 (Table 9).
Purified recombinant gp350 ectodomain was used as a control to validate the binding activity for all of the antibodies used. The overall gp350 sequence was divided into nine different regions consisting of ˜100 AA (FIG. 7).

goat anti-human IgG = test: ELISA for reactivity to anti-human IgG (HAMA testing); assay type: binding; conditions: 10 μg/ml antibody on gp350-coated plates
From the text: ClustalW alignment of heavy chain (i) and light chain (ii) variable region amino acid sequences. Murine 72A1 heavy chain and light chain AA sequences are represented by SEQ ID NOs: 178 and 179, respectively, and humanized 72A1 heavy chain and light chain AA sequences are represented by SEQ ID NOs: 180 and 181, respectively. Regions of identical sequence are represented by *. Regions of similarity are represented by :. […] FIG. 4C: ELISA determining the reactivity of humanized 72A1 to murine IgG. Soluble EBV gp350 protein was used as the target antigen at 0.5 μg/ml. […] Bound antibodies were detected using HRP-conjugated anti-mouse IgG or anti-human IgG (1:2,000). […] Unstained cells and cells stained with secondary goat anti-mouse or anti-human conjugated to AF488 alone were used as negative controls.
ELISA was performed to determine the reactivity of chimeric and humanized antibodies to murine IgG. Soluble EBV gp350 or gH/gL protein was used as the target antigen at 0.5 μg/ml. […] Bound antibodies were detected using HRP-conjugated anti-mouse IgG or anti-human IgG (1:2,000). […] To determine whether chimeric and humanized anti-gp350 retained the ability to recognize linear epitopes on gp350, lysate from CHO WT cells and CHO cell stably expressing gp350 were analyzed by western blot analysis.

T1 sequence (P03200 142-161): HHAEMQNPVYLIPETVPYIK

B1: m72A1: EBV anti-gp350 neutralizing mouse antibody purified from HB168 hybridoma (ATCC); SEQ ID NO: 100 / 101 (antibody, V domains shown)
VH: PELVKPGTSMKISCKASGSSFTDYTMNWMKQSHGKNLEWIGLINPYNGGTRYNQKFKGKATLTLDKSSSTAYMEVLSLTSEDSAVYYCAGGLRRVNWFAYWGQGTLVSVSAAKTTPPSVYPLAPGSAAQTNSMVTLG
VL: QAVLTQESALTTSPGETVTLTCRSSTGAVTTSNYANWVQEKPDHLFTGLIGGTNNRVPGVPARFSGSLIGDKAALTITGAQTEDEAIYFCVLWHSNHWVFGGGTKLTVL
modifications: heavy chain mAb 72A1; light chain mAb 72A1
protection against EBV and development of EBV+ tumors or PTLD-like lesions (EBV [1]): completely protected | patients developing a hypersensitivity reaction (EBV [2]): one | patients who developed human anti-mouse Abs (HAMA) (EBV [2]): all 4 | short-term protection against acquiring EBV after transplantation (EBV [2]): 3 out of 4

B2: h72A1: humanized 72A1 IgG1; heavy and light chain SEQ ID NOs: 180 and 181 (antibody, V domains shown)
VH: EVQLVESGGGLVQPGGSLRLSCAASGSSFTDYTMNWMRQSPGKGLEWIGLINPYNGGTRYADSVKGRATLSLDKSKNTAYLQMNSLRAEDTAIYYCAGGLRRVNWFAYWGQGTLVTVSS
VL: DAQLTQSPILLSASVGDRVTITCRSSTGAVTTSNYANWVQERTNGSFRGLIGGTNNRVPGVPSRFSGSLSGDDATLTISSLQPEDEADYFCVLWHSNHWVFGAGTKVEIKR
recognition of gp350 peptides of the principal neutralizing epitope (142-161) [3]: recognized both native gp350 as well as gp350 peptides that constitute the principal gp350 neutralizing epitope (142-161) | reactivity to goat anti-human IgG over the background (goat anti-human IgG): 2100 fold
